How the values were obtained:
[1] = target: TGFBR1 of porcine enamel organ epithelia (porcine (endogenous in enamel organ epithelia)) (UniProt Q5CD18)
[2] = target: TGF-β1 of the porcine enamel matrix (porcine (endogenous in porcine enamel)); test: dynamic light scattering; multi-angle DLS, 25.0 °C, Tris; original (TGF-β1-bound) P103 amelogenin at c > 6.0 mg mL^-1 (Line 1), D extrapolated to D0; RH 3.21 nm, Mw from an empirical RH-Mw relation; complex formed in vivo
[3] = target: TGF-β1 of the porcine enamel matrix (porcine (endogenous in porcine enamel))
[4] = target: carrier-free recombinant human TGF-β1 (human); test: in vitro binding, RP-HPLC, TGF-β1 quantified by ALP-inducing activity of HPDL cells; purified amelogenin mixed with CF-hTGF-β1 or rh-latent TGF-β1, fractions from RP-HPLC tested in the ALP-HPDL system; ng per mg of amelogenin calculated from standard CF-hTGF-β1 (0.3 ng mL^-1), after dilution correction; details in the Supplementary Methods
[5] = target: P103 amelogenin (porcine); test: dynamic light scattering; multi-angle DLS, 25.0 °C, Tris; D extrapolated to zero concentration (D0), RH by Stokes-Einstein, Mw from an empirical RH-Mw relation; P103-1 and P103-2 amelogenins and original P103 amelogenin at c < 4.0 mg mL^-1; RH 2.57 nm
[6] = target: TGF-β1 of the porcine enamel matrix (porcine (endogenous in porcine enamel)); test: co-elution on RP-HPLC, TGF-β1 quantified by ALP-inducing activity of HPDL cells; amelogenins as purified from enamel (before the in vitro binding); ng of TGF-β1 per mg of amelogenin calculated from standard CF-hTGF-β1 (0.3 ng mL^-1), after dilution correction; complexes formed in vivo

Chain of TGF-β1 of the porcine enamel matrix (porcine (endogenous in porcine enamel)) (P07200 30-390): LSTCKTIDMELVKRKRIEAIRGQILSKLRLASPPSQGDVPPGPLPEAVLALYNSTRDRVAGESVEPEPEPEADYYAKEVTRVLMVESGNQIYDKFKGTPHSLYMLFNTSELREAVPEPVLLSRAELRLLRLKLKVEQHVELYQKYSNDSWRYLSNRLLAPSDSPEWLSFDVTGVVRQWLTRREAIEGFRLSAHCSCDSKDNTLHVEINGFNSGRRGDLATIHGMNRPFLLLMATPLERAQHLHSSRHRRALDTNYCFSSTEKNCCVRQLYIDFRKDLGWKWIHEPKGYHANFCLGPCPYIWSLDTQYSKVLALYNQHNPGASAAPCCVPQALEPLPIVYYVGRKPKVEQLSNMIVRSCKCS
Chain of P103 amelogenin-TGF-β1 complex (P07200 whole entry, looked up, one chain of several): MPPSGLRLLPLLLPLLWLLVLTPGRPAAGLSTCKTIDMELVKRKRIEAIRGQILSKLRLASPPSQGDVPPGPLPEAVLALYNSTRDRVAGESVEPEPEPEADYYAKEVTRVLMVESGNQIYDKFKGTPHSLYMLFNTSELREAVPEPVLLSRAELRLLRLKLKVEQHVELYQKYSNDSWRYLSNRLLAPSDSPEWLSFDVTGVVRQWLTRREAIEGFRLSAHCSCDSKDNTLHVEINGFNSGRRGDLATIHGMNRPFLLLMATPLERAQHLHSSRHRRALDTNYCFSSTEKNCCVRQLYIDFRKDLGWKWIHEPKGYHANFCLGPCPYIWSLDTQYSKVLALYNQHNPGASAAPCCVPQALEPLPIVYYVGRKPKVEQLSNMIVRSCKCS
Chain of TGFBR1 of porcine enamel organ epithelia (porcine (endogenous in enamel organ epithelia)) (Q5CD18 30-503): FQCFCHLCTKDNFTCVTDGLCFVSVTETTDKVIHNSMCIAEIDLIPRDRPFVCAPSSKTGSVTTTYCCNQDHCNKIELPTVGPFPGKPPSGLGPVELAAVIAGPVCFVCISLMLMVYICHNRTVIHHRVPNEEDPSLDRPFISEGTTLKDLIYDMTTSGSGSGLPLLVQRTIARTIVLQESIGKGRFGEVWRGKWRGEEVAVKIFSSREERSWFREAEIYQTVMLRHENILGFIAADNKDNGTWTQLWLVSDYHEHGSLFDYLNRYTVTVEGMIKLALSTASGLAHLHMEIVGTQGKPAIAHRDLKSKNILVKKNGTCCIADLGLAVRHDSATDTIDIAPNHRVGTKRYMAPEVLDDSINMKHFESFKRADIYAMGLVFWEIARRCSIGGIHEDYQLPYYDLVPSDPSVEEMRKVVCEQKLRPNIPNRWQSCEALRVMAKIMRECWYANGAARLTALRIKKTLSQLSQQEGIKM

Substance | TR-FRET TGFBR1 kinase assay (phosphorylation of ULight-Topo IIα peptide, 5 mM ATP), FRET signal after 12 h with the complex added, against the control without addition (% higher than the control) [1] | stoichiometry N (amelogenin trimer per TGF-β homodimer) [2] | ALP-inducing activity of HPDL cells left after digestion of the P103 amelogenin-TGF-β1 complex with pKLK4 for 20 h, compared to the level before digestion (CF-hTGF-β1 alone: 8%) [3] [%] | bound TGF-β1, ng against 1 mg of amelogenin [4] [ng] | stoichiometry N [5] | original TGF-β1, ng against 1 mg of amelogenin [6] [ng]
P103 amelogenin-TGF-β1 complex (from UniProt P07200 279-390) | 5 |  |  |  |  | 
P103 amelogenin (domain or fragment) |  | 1 | 70 | 1.08 | 3 | 0.797
P162 amelogenin (domain or fragment) |  |  |  | 1.17 |  | 0.201
P148 amelogenin (domain or fragment) |  |  |  | 1.06 |  | 0.263

Source: paper PMC5025654
